PMC12671738
“And” between values parts separate entries of the source, which are not always exact repeats. Identical values can stand only once.

What was measured:
[1] = target: p33 protein of citrus tristeza virus (CTV) (citrus tristeza virus); assay: SDS-PAGE and western blot of SDS-resistant oligomers; crude extract: leaf discs of agroinfiltrated N. benthamiana macerated directly in SDS loading buffer with 8 M urea; blot with anti-p33 antibody; empty vector as control
[2] = target: p33 protein of citrus tristeza virus (CTV) (citrus tristeza virus); assay: SDS-PAGE and western blot of SDS-resistant oligomers; p33 immunoprecipitated from N. benthamiana leaf lysate with anti-p33 antibody on protein A magnetic beads, eluted in SDS loading buffer with 100 mM DTT and 8 M urea at 70 °C; blot with anti-p33 antibody

Q: Which stoichiometry N [1] does the source give for “p33 protein of citrus tristeza virus (CTV) (natural protein)” here?
A: 2 and 4

Q: What about the stoichiometry N [2] of the same substance?
A: 2 and 4
